The values below come from US20230044380A1.

This experiment addresses T1, CD70 (UniProt P32970).
T1 sequence (looked up): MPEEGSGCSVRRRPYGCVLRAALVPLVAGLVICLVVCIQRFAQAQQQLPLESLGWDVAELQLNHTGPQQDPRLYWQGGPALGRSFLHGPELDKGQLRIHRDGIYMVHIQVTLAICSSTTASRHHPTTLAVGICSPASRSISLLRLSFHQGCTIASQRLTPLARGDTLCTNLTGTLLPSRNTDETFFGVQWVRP
Kind of experiment: cell-based or functional assay.

B1: CD27.Z (CD70 CAR) (protein)
chain: ATPAPKSCPERHYWAQGKLCCQMCEPGTFLVKDCDQHRKAAQCDPCIPGVSFSPDHHTRPHCESCRHCNSGLLVRNCTITANAECACRNGWQCRDKECTECDPLPNPSLTARSSQALSPHPQPTHLPYVSEMLEARTAGHMQTLADFRQLPARTLSTHWPPQRSLCSSDFIRILVIFSGMFLVFTLAGALFLHQRRKYRSNKGESPVEPAEPCRYSCPREEEGSTIPIQEDYRKPEPACSPRVKFSRSADAPAYQQGQNQLYNELNLGRREEYDVLDKRRGRDPEMGGKPRRKNPQEGLYNELQKDKMAEAYSEIGMKGERRRGKGHDGLYQGLSTATKDTYDALHMQALPPR
Regarding B1, the percentage of CD107a positive T cells in CD8 positive T cells; CD27 CAR + LACO (A40C.28) T cells stimulated by 786-O (CD70 + + +) amounted to 27.3%, the percentage of CD107a positive T cells in CD8 positive T cells; CD27 CAR + LACO (A40C.28) T cells stimulated by A498-CBG (CD70 + + +) came to 22.7%, the percentage of CD107a positive T cells in CD8 positive T cells; CD27 CAR + LACO (A40C.28) T cells stimulated by A549-CBG (CD70 +) was 3.3% and the percentage of CD107a positive T cells in CD8 positive T cells; CD27 CAR + LACO (A40C.28) T cells stimulated by HS766T-CBG (CD70 +) amounted to 9.7%. For the same molecule, the percentage of CD107a positive T cells in CD8 positive T cells; CD27 CAR + LACO (A40C.28) T cells stimulated by Jeko-1-CBG (CD70 + + +) is 34.4%, the percentage of CD107a positive T cells in CD8 positive T cells; CD27 CAR + LACO (A40C.28) T cells stimulated by OVCAR3 (CD70 +) was found to be 6.9%, the percentage of CD107a positive T cells in CD8 positive T cells; CD27 CAR + LACO (A40C.28) T cells stimulated by PC3-CBG (CD70 + +) is 15.9% and the percentage of CD107a positive T cells in CD8 positive T cells; CD27 CAR + LACO (A40C.28) T cells stimulated by Raji-CBG (CD70 + + +) turned out to be 30.3%. In addition, the percentage of CD107a positive T cells in CD8 positive T cells; CD27 CAR + LACO (A40C.28) T cells stimulated by SKOV3-CBG (CD70 +) turned out to be 3.3%, the percentage of CD107a positive T cells in CD8 positive T cells; CD27 CAR + LACO (A40C.28) T cells stimulated by THP1 (CD70 + +) was 22.2%, the percentage of CD107a positive T cells in CD8 positive T cells; CD27 CAR + LACO (A40C.28) T cells stimulated by U87-CBG (CD70 + + +) came to 32% and the percentage of CD107a positive T cells in CD8 positive T cells; CD27 CAR + LACO (A40C.28) T cells stimulated by U937 (CD70 + +) came to 9%. In addition, the percentage of CD107a positive T cells in CD8 positive T cells; CD27 CAR T cells stimulated by 786-O (CD70 + + +) was 27.6%, the percentage of CD107a positive T cells in CD8 positive T cells; CD27 CAR T cells stimulated by A498-CBG (CD70 + + +) came out at 30.8%, the percentage of CD107a positive T cells in CD8 positive T cells; CD27 CAR T cells stimulated by A549-CBG (CD70 +) amounted to 4.4% and the percentage of CD107a positive T cells in CD8 positive T cells; CD27 CAR T cells stimulated by HS766T-CBG (CD70 +) amounted to 15%. The percentage of CD107a positive T cells in CD8 positive T cells; CD27 CAR T cells stimulated by Jeko-1-CBG (CD70 + + +) amounted to 23.1%, the percentage of CD107a positive T cells in CD8 positive T cells; CD27 CAR T cells stimulated by OVCAR3 (CD70 +) was 8.8%, the percentage of CD107a positive T cells in CD8 positive T cells; CD27 CAR T cells stimulated by PC3-CBG (CD70 + +) stood at 16% and the percentage of CD107a positive T cells in CD8 positive T cells; CD27 CAR T cells stimulated by Raji-CBG (CD70 + + +) worked out at 29.9%. The percentage of CD107a positive T cells in CD8 positive T cells; CD27 CAR T cells stimulated by SKOV3-CBG (CD70 +) is 3.2%, the percentage of CD107a positive T cells in CD8 positive T cells; CD27 CAR T cells stimulated by THP1 (CD70 + +) came out at 20.2%, the percentage of CD107a positive T cells in CD8 positive T cells; CD27 CAR T cells stimulated by U87-CBG (CD70 + + +) was determined as 37.8% and the percentage of CD107a positive T cells in CD8 positive T cells; CD27 CAR T cells stimulated by U937 (CD70 + +) was 7.1%.
